Data as given in US20130052729A1, “METHOD FOR PREPARING INDUCED PARAXIAL MESODERM PROGENITOR (IPAM) CELLS AND THEIR USE” (priority 2011, published 2013).
Entries after “also recorded” stand apart in the source; their conditions may differ.

Experiments:
[1] = system: Msgn1RepV mES cells; assay: iPAM induction in Msgn1RepV reporter mES cells (YFP+ cells, flow cytometry); format: cell-based, mouse; settings: for effect on number of YFP+ cells: recombinant protein, 15% FBS, 4 days of differentiation
Protocol: ES cells were trypsinized and plated at various densities in gelatin coated, feeder-free, 24 well plates directly in serum-based (15% FBS) or serum-replacement (15% KSR, Invitrogen) conditions supplemented with factors, and DMSO (Sigma). Recombinant proteins were obtained commercially (R&D) and stock solutions were prepared according to manufacturer's recommendation. The GSK-3β inhibitor CHIR99021 was purchased from Stemgent and prepared according to the manufacturer's recommendations. Fluorescent reporter analysis and image acquisition were done on a Zeiss Axiovert system.
Cell cultures were dissociated by trypsinization, analyzed by flow cytometry on a FACScalibur (BD Biosciences) according to YFP expression. Data were further analyzed with MoFlo software (Beckman Coulter) and FlowJo software.
In order to follow the differentiation of ES cells toward the first stage of paraxial mesoderm differentiation (ie presomitic fate), which represents the first step of skeletal muscle differentiation after acquisition of a mesodermal identity, we generated a transgenic mouse ES cell line harboring a fluorescent reporter specifically expressed in paraxial mesoderm progenitors. We used the promoter from the mouse Msgn1, a gene specific for the presomitic mesoderm, to drive the expression of Venus (a modified YFP).
In order to optimize the differentiation conditions for paraxial mesoderm progenitors, we developed a manual screening assay, testing candidate growth factors and drugs interfering with various signaling pathways on ES cells. The Msgn1RepV reporter cells were plated at a defined density in 24-well plates coated with gelatin (0.1%). Two basal culture media were selected: a DMEM based medium containing 15% fetal bovine serum (FBS, high serum) and a defined serum-free medium containing 15% KSR (Invitrogen/Gibco). These basal media were supplemented with candidate factors on day 0 of differentiation. Control and experimental conditions were cultured in parallel. Cells were left to differentiate for three to four days with medium changed on day 2 or 3. Cell cultures were analyzed on day 3 and 4 of differentiation visually and by flow cytometry for YFP+ population quantification.

[2] = system: Wnt signaling; settings: cited from earlier work
[3] = system: canonical Wnt signaling; assay: BAT-luc luciferase reporter for canonical Wnt signaling in transfected ES cells; format: cell-based, mouse; settings: Rspo3 10 ng/mL, low serum (1% FBS) medium
[4] = system: HUES1 cells; assay: qRT-PCR of paraxial mesoderm progenitor markers in differentiating human ES cells; format: cell-based; settings: 3 to 10 days of culture in 15% FBS containing medium
Protocol: Comparison of the expression of paraxial mesoderm progenitor markers Brachyury (A), PDGFRa (B), Tbx6 (C), Msgn1 (D) measured by Q RT-PCR in HUES1 undifferentiated or cultured in 15% FBS containing medium with or without Rspo3 for up to 10 days. Relative expression to undifferentiated HUES1 cells is shown (fold induction)
(§1) Total RNA was extracted from ES cell cultures using a Trizol reagent (Invitrogen) or with the Rnaeasy plus mini-kit (Qiagen). RT-PCR was performed on 5 ng total RNA using QuantiFast SYBR Green RT-PCR Kit (Qiagen), appropriate primers and run on a LightCycler 480II (Roche). GAPDH was used as the internal control.
Next, to confirm that R-spondin also induces iPAM cells from human ES cells differentiation, HUES1 cells were plated has single cells and differentiated in 15% FBS containing medium with or without Rspo3. qRT-PCR time course analysis for paraxial mesoderm progenitor markers expression was performed (FIG. 10).

[5] = system: mouse ES cells; assay: Sequential differentiation of iPAM cells into paraxial mesoderm derivatives (staining, qRT-PCR); format: cell-based; settings: DMSO 0.5%
Protocol: From day 0 to day 4, mouse ES cells were differentiated in presence of Rspo3, followed by 15% FBS medium until day 18. Cell types were identified by tissue-specific antibody staining, namely Muscle (Desmin, green), Endothelium (PECAM1/CD31, green) and Cartilage (Alcian Blue).
ES cells were cultured for 4 days in FBS15%, DMSO 0.5% and 10 ng/ml Rspo3 and then switched to FBS 15% or FBS 1% or FBS1% plus […] (Shh) and Retinoic acid (F1ShhRA) or plus Shh, Noggin and LiCl (F1SNLi). Cells were harvested the next day and analyzed by qRT-PCR for the dermal marker Dermol (A) and the muscle marker Myf5 (B). Graphs show fold enrichment.
as §1, with “control. […]” for “control.”
For example, between day0 to day4, ES cells were exposed to optimized differentiating conditions (ie. R-spondin3 10 ng/mL, DMSO 0.5%, in 15% FBS basal medium). […] At day 18, cell cultures were fixed and analyzed by tissue specific histochemical staining or immunofluorescence (FIG. 8). […] Cells were harvested the next day and analyzed by qRT-PCR for the dermal marker Dermo 1 and the muscle marker Myf5 (FIG. 9).

In the case of `C[S+](C)[O-]` [DMSO, Dimethyl sulfoxide], the “effect on YFP+ cells” value ([1]; 0.5% DMSO in FBS-containing medium, 4 days in culture) is reported as “positive effect on iPAM induction; also recorded: increase of YFP+ cells”.

With `Cc1c[nH]c(-c2cnc(NCCNc3ccc(C#N)cn3)nc2-c2ccc(Cl)cc2Cl)n1` [CHIR99021, reference compound] the “efficiency in inducing YFP+ cells compared with Rspo-3” value ([1]; after 4 days, 15% FBS medium) was “as efficient as Rspo-3”.

B1: R-spondin2: secreted protein of the R-spondin family that activates Wnt signalling pathway; recombinant protein obtained commercially (R&D) (protein, UniProt Q6UXX9 22-243, looked up)
R-spondin-2: QGNRWRRSKRASYVSNPICKGCLSCSKDNGCSRCQQKLFFFLRREGMRQYGECLHSCPSGYYGHRAPDMNRCARCRIENCDSCFSKDFCTKCKVGFYLHRGRCFDECPDGFAPLEETMECVEGCEVGHWSEWGTCSRNNRTCGFKWGLETRTRQIVKKPVKDTILCPTIAESRRCKMTMRHCPGGKRTPKAKEKRNKKKKRKLIERAQEQHSVFLATDRANQ
For B1, the “effect on number of YFP+ cells” value [1] is given as “significantly increase the number of YFP+ cells” and the “potency to activate Wnt signaling versus Rspo1 and 4” value [2] is given as “more potent”.

B2: Dkk1: secreted extracellular Wnt antagonist, inhibitor of canonical Wnt signaling (protein, UniProt O94907 32-266, looked up)
Dickkopf-related protein 1: TLNSVLNSNAIKNLPPPLGGAAGHPGSAVSAAPGILYPGGNKYQTIDNYQPYPCAEDEECGTDEYCASPTRGGDAGVQICLACRKRRKRCMRHAMCCPGNYCKNGICVSSDQNHFRGEIEETITESFGNDHSTLDGYSRRTTLSSKMYHTKGQEGSVCLRSSDCASGLCCARHFWSKICKPVLKEGQVCTKHRRKGSHGLEIFQRCYCGEGLSCRIQKDHHQASNSSRLHTCQRH
For B2, the “effect of supplementation of the medium on YFP+ induction” value ([1]; 15% FBS medium, 4 days) was “sharp decrease of YFP+ induction”.

B3: R-spondin3: secreted protein of the R-spondin family that activates Wnt signalling pathway; recombinant protein obtained commercially (R&D) (protein, UniProt Q9BXY4 22-272, looked up)
R-spondin-3: QNASRGRRQRRMHPNVSQGCQGGCATCSDYNGCLSCKPRLFFALERIGMKQIGVCLSSCPSGYYGTRYPDINKCTKCKADCDTCFNKNFCTKCKSGFYLHLGKCLDNCPEGLEANNHTMECVSIVHCEVSEWNPWSPCTKKGKTCGFKRGTETRVREIIQHPSAKGNLCPPTNETRKCTVQRKKCQKGERGKKGRERKRKKPNKGESKEAIPDSKSLESSKEIPEQRENKQQQKKRKVQDKQKSVSVSTVH
With B3 the “induction of YFP+ cells” value ([1]; 10 ng/mL, both in FBS based medium and KSR based medium) was “up to 70%”, the “YFP+ population of the total population” value ([1]; 10 ng/mL, day 4 of differentiation, 15% FBS medium, flow cytometry) was “more than 70%” and the “effect on number of YFP+ cells” value [1] was “significantly increase the number of YFP+ cells”. For the same molecule, the “luciferase (BAT-luc) activation, canonical Wnt response” value [3] was “strongly activated”, the “luciferase (BAT-luc) activation, canonical Wnt response” value ([3]; listed as Rspo3) was “strongly activates the canonical Wnt response” and the “expression of paraxial mesoderm progenitor markers Brachyury, PDGFRa, Tbx6 and Msgn1” value [4] was “induction of the paraxial mesoderm progenitor markers; also recorded: Strong activation of Msgn1 and Tbx6”. The “activation of dermal marker Dermo 1 and muscle marker Myf5 (qRT-PCR)” value ([5]; 4 days Rspo3 10 ng/mL, FBS15%, then switched medium, harvested next day) was “Significant activation of these markers”, the “tissue-specific staining of cultures at day 18” value ([5]; day0 to day4 R-spondin3 10 ng/mL, 15% FBS, then differentiation media until day 18) was “positive for Cartilage (Alcian blue positive nodules), Muscles (Desmin positive fibers) and Endothelium (CD31/PECAM1)” and the “potency to activate Wnt signaling versus Rspo1 and 4” value [2] was “more potent”.
